The target of this assay is K63-linked diUb (UniProt P0CG48). Put plainly: ITC; USP13-UBA12 (1.25 mM stock) injected into K63-, K48-, linear diUb (0.1 mM) or monoUb (0.2 mM), 25 injections of 1.5 µL; 50 mM Tris, 150 mM NaCl, pH 7.5; 25°C.

As to “tandem UBA domains of USP13 (USP13-UBA12, residues 652-776) (from UniProt Q92995 652-776) (domain or fragment)”, the Kd amounted to 1 µM.
